This passage reports Ki results from paper PMC3787073 (PLoS ONE, 2013).

Like-named read-outs stand apart in the source and are kept apart here.

Holding throughout (test): enzyme inhibition kinetics (Dixon plot)
Test [1] addresses α-chymotrypsin from bovine pancreas (bovine).
Test [2] has the same target. The source holds these as a separate data set.
The target of test [3] is elastase from bovine pancreas (bovine, UniProt Q28153 27-266). The following applies: both partners purified.
Chain of elastase from bovine pancreas (Q28153 27-266): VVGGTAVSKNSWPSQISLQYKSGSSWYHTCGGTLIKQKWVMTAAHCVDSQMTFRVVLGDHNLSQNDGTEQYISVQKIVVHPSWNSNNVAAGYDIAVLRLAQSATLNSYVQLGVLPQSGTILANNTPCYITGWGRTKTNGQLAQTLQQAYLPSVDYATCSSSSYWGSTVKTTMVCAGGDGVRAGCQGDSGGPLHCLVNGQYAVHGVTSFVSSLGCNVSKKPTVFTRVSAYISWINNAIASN

For “Recombinant Sc-KU-4 (BPTI-Kunitz family serine protease inhibitor of Steinernema carpocapsae) (from UniProt E2IPQ6) (natural protein)”, the Ki (commonly the dissociation constant of the complex between target and ligand, obtained from inhibition or displacement) came to 2.6 nM in test [1] and 1.8 nM in test [2].

B1: Recombinant Sc-KU-4 (BPTI-Kunitz family serine protease inhibitor of Steinernema carpocapsae) (natural protein)
chain: FPLFEFNCSALKDSGSGSNVTRQFYFDPDWNTCLAFNYNGTGGNTNRFETKEDCELLCVPAGSTCKGPSKTVVQPLKEAFRCDDSVCPSTHKCLMGMVPVCCDKENQEAFNQAVADTCPDGTKADGIFDLYFRAVYAHSCEDLICDENHKCVQVNKHFAKCCSKE
notes: not shown: His6, C-terminal, kept
B1 returned a Ki in test [3] of 2.6 nM.
